± gives the uncertainty stated by the source.

The series in a line: abundance fitness (aPCA) (normalised: wild type 0, dead -1); higher = more abundant; growth selection in yeast, the domain comes from the species named. Particulars: Homo sapiens.
For the substance “Lipoamide acyltransferase component of branched-chain alpha-keto acid dehydrogenase complex, mitochondrial K211F, P11182”, the abundance fitness is -0.232 ± 0.065.
Regarding “Lipoamide acyltransferase component of branched-chain alpha-keto acid dehydrogenase complex, mitochondrial K211G, P11182”, the abundance fitness was 0.007 ± 0.037.
For “Lipoamide acyltransferase component of branched-chain alpha-keto acid dehydrogenase complex, mitochondrial K211H, P11182” the value was -0.041 ± 0.052; for “Lipoamide acyltransferase component of branched-chain alpha-keto acid dehydrogenase complex, mitochondrial K211I, P11182”, -0.122 ± 0.061; for “Lipoamide acyltransferase component of branched-chain alpha-keto acid dehydrogenase complex, mitochondrial K211L, P11182”, -0.115 ± 0.043.
In turn, “Lipoamide acyltransferase component of branched-chain alpha-keto acid dehydrogenase complex, mitochondrial K211M, P11182” showed an abundance fitness of -0.073 ± 0.051.
For “Lipoamide acyltransferase component of branched-chain alpha-keto acid dehydrogenase complex, mitochondrial K211N, P11182” the value was -0.058 ± 0.092.
“Lipoamide acyltransferase component of branched-chain alpha-keto acid dehydrogenase complex, mitochondrial K211P, P11182” displayed an abundance fitness of -0.093 ± 0.048.
“Lipoamide acyltransferase component of branched-chain alpha-keto acid dehydrogenase complex, mitochondrial K211Q, P11182”: the abundance fitness was -0.024 ± 0.044.
On to “Lipoamide acyltransferase component of branched-chain alpha-keto acid dehydrogenase complex, mitochondrial K211R, P11182”, for which the abundance fitness was 0.043 ± 0.037.
Consider “Lipoamide acyltransferase component of branched-chain alpha-keto acid dehydrogenase complex, mitochondrial K211S, P11182”, for which the abundance fitness is -0.044 ± 0.04.
Next, “Lipoamide acyltransferase component of branched-chain alpha-keto acid dehydrogenase complex, mitochondrial K211T, P11182”: -0.041 ± 0.056; “Lipoamide acyltransferase component of branched-chain alpha-keto acid dehydrogenase complex, mitochondrial K211V, P11182”: -0.049 ± 0.045; “Lipoamide acyltransferase component of branched-chain alpha-keto acid dehydrogenase complex, mitochondrial K211W, P11182”: -0.206 ± 0.047.
In the case of “Lipoamide acyltransferase component of branched-chain alpha-keto acid dehydrogenase complex, mitochondrial K211Y, P11182”, the abundance fitness is -0.157 ± 0.1.
For “Lipoamide acyltransferase component of branched-chain alpha-keto acid dehydrogenase complex, mitochondrial L172A, P11182” the value was -0.327 ± 0.053; for “Lipoamide acyltransferase component of branched-chain alpha-keto acid dehydrogenase complex, mitochondrial L172C, P11182”, -0.243 ± 0.079; for “Lipoamide acyltransferase component of branched-chain alpha-keto acid dehydrogenase complex, mitochondrial L172D, P11182”, -0.237 ± 0.076.
Take “Lipoamide acyltransferase component of branched-chain alpha-keto acid dehydrogenase complex, mitochondrial L172E, P11182”: the abundance fitness is -0.107 ± 0.061.
“Lipoamide acyltransferase component of branched-chain alpha-keto acid dehydrogenase complex, mitochondrial L172F, P11182” yielded an abundance fitness of -0.195 ± 0.085.
“Lipoamide acyltransferase component of branched-chain alpha-keto acid dehydrogenase complex, mitochondrial L172G, P11182”: the abundance fitness was -0.681 ± 0.051.
The substance “Lipoamide acyltransferase component of branched-chain alpha-keto acid dehydrogenase complex, mitochondrial L172H, P11182” came in with an abundance fitness of -0.052 ± 0.091.
“Lipoamide acyltransferase component of branched-chain alpha-keto acid dehydrogenase complex, mitochondrial L172I, P11182” had an abundance fitness of -0.047 ± 0.066.
Regarding “Lipoamide acyltransferase component of branched-chain alpha-keto acid dehydrogenase complex, mitochondrial L172K, P11182”, the abundance fitness was -0.004 ± 0.048.
The substance “Lipoamide acyltransferase component of branched-chain alpha-keto acid dehydrogenase complex, mitochondrial L172M, P11182” came in with an abundance fitness of -0.063 ± 0.048.
The substance “Lipoamide acyltransferase component of branched-chain alpha-keto acid dehydrogenase complex, mitochondrial L172N, P11182” registered an abundance fitness of -0.127 ± 0.07.
“Lipoamide acyltransferase component of branched-chain alpha-keto acid dehydrogenase complex, mitochondrial L172P, P11182” gave an abundance fitness of -0.226 ± 0.057.
Next, “Lipoamide acyltransferase component of branched-chain alpha-keto acid dehydrogenase complex, mitochondrial L172Q, P11182”: -0.428 ± 0.32; “Lipoamide acyltransferase component of branched-chain alpha-keto acid dehydrogenase complex, mitochondrial L172R, P11182”: -0.347 ± 0.049; “Lipoamide acyltransferase component of branched-chain alpha-keto acid dehydrogenase complex, mitochondrial L172S, P11182”: -0.251 ± 0.045.
Next, “Lipoamide acyltransferase component of branched-chain alpha-keto acid dehydrogenase complex, mitochondrial L172T, P11182”: -0.085 ± 0.1; “Lipoamide acyltransferase component of branched-chain alpha-keto acid dehydrogenase complex, mitochondrial L172V, P11182”: -0.107 ± 0.039; “Lipoamide acyltransferase component of branched-chain alpha-keto acid dehydrogenase complex, mitochondrial L172W, P11182”: -0.206 ± 0.061.
For the substance “Lipoamide acyltransferase component of branched-chain alpha-keto acid dehydrogenase complex, mitochondrial L172Y, P11182”, the abundance fitness is -0.139 ± 0.07.
Take “Lipoamide acyltransferase component of branched-chain alpha-keto acid dehydrogenase complex, mitochondrial L180C, P11182”: the abundance fitness is -0.421 ± 0.055.
For the substance “Lipoamide acyltransferase component of branched-chain alpha-keto acid dehydrogenase complex, mitochondrial L180D, P11182”, the abundance fitness was -0.895 ± 0.16.
For the substance “Lipoamide acyltransferase component of branched-chain alpha-keto acid dehydrogenase complex, mitochondrial L180E, P11182”, the abundance fitness is -0.438 ± 0.047.
Next, “Lipoamide acyltransferase component of branched-chain alpha-keto acid dehydrogenase complex, mitochondrial L180F, P11182”: -0.027 ± 0.095; “Lipoamide acyltransferase component of branched-chain alpha-keto acid dehydrogenase complex, mitochondrial L180G, P11182”: -0.609 ± 0.041; “Lipoamide acyltransferase component of branched-chain alpha-keto acid dehydrogenase complex, mitochondrial L180H, P11182”: -0.938 ± 0.17.
For “Lipoamide acyltransferase component of branched-chain alpha-keto acid dehydrogenase complex, mitochondrial L180I, P11182” the value was -0.194 ± 0.11; for “Lipoamide acyltransferase component of branched-chain alpha-keto acid dehydrogenase complex, mitochondrial L180K, P11182”, -0.296 ± 0.2; for “Lipoamide acyltransferase component of branched-chain alpha-keto acid dehydrogenase complex, mitochondrial L180M, P11182”, 0.008 ± 0.088.
In the case of “Lipoamide acyltransferase component of branched-chain alpha-keto acid dehydrogenase complex, mitochondrial L180P, P11182”, the abundance fitness is -0.557 ± 0.13.
With “Lipoamide acyltransferase component of branched-chain alpha-keto acid dehydrogenase complex, mitochondrial L180Q, P11182”, the abundance fitness is -0.403 ± 0.12.
Turning to “Lipoamide acyltransferase component of branched-chain alpha-keto acid dehydrogenase complex, mitochondrial L180R, P11182”, the abundance fitness is -0.563 ± 0.046.

For the origin of these results see the Human Domainome abundance scans (Beltran et al. 2025).
